Source: US11499162B2, “Plants having increased tolerance to herbicides” (BASF SE, priority 2016, dated 2022)

B1: P219GH249N: mutated TriA variant of SEQ ID NO: 2 (protein)
chain: MQTLSIQHGTLVTMDQYRRVLGDSWVHVQDGRIVALGVHAESVPPPADRVIDARGKVVLPGFINAHTHVNQILLRGGPSHGRQLYDWLFNVLYPGQKAMRPEDVAVAVRLYCAEAVRSGITTINDNADSAIYPGNIEAAMAVYGEVGVRVVYARMFFDRMDGRIQGYVDALKARSPQVELCSIMEETAVAKDRITALSDQYHGTAGGRISVWPAPAITGAVTVEGMRWAQAFARDRAVMWTLHMAESDNDERLHWMSPAEYMECYGLLDERLQVAHCVYFDRKDVRLLHRHNVKVASQVVSNAYLGSGVAPVPEMVERGMAVGIGTDDGNCNDSVNMIGDMKFMAHIHRAVHRDADVLTPEKILEMATIDGARSLGMDHEIGSIETGKRADLILLDLRHPQTTPHHHLAATIVFQAYGNEVDTVLIDGNVVMENRRLSFLPPERELAFLEEAQSRATAILQRANMVANPAWRSL
modifications: Pseudomonas
B2: I217VP219GH249N: mutated TriA variant of SEQ ID NO: 2 (protein)
chain: MQTLSIQHGTLVTMDQYRRVLGDSWVHVQDGRIVALGVHAESVPPPADRVIDARGKVVLPGFINAHTHVNQILLRGGPSHGRQLYDWLFNVLYPGQKAMRPEDVAVAVRLYCAEAVRSGITTINDNADSAIYPGNIEAAMAVYGEVGVRVVYARMFFDRMDGRIQGYVDALKARSPQVELCSIMEETAVAKDRITALSDQYHGTAGGRISVWPAPAVTGAVTVEGMRWAQAFARDRAVMWTLHMAESDNDERLHWMSPAEYMECYGLLDERLQVAHCVYFDRKDVRLLHRHNVKVASQVVSNAYLGSGVAPVPEMVERGMAVGIGTDDGNCNDSVNMIGDMKFMAHIHRAVHRDADVLTPEKILEMATIDGARSLGMDHEIGSIETGKRADLILLDLRHPQTTPHHHLAATIVFQAYGNEVDTVLIDGNVVMENRRLSFLPPERELAFLEEAQSRATAILQRANMVANPAWRSL
modifications: Pseudomonas
B3: A220S: mutated TriA variant of SEQ ID NO: 2 (protein)
chain: MQTLSIQHGTLVTMDQYRRVLGDSWVHVQDGRIVALGVHAESVPPPADRVIDARGKVVLPGFINAHTHVNQILLRGGPSHGRQLYDWLFNVLYPGQKAMRPEDVAVAVRLYCAEAVRSGITTINDNADSAIYPGNIEAAMAVYGEVGVRVVYARMFFDRMDGRIQGYVDALKARSPQVELCSIMEETAVAKDRITALSDQYHGTAGGRISVWPAPAITPSVTVEGMRWAQAFARDRAVMWTLHMAESDHDERLHWMSPAEYMECYGLLDERLQVAHCVYFDRKDVRLLHRHNVKVASQVVSNAYLGSGVAPVPEMVERGMAVGIGTDDGNCNDSVNMIGDMKFMAHIHRAVHRDADVLTPEKILEMATIDGARSLGMDHEIGSIETGKRADLILLDLRHPQTTPHHHLAATIVFQAYGNEVDTVLIDGNVVMENRRLSFLPPERELAFLEEAQSRATAILQRANMVANPAWRSL
modifications: Pseudomonas
B4: F157AA220G: mutated TriA variant of SEQ ID NO: 2 (protein)
chain: MQTLSIQHGTLVTMDQYRRVLGDSWVHVQDGRIVALGVHAESVPPPADRVIDARGKVVLPGFINAHTHVNQILLRGGPSHGRQLYDWLFNVLYPGQKAMRPEDVAVAVRLYCAEAVRSGITTINDNADSAIYPGNIEAAMAVYGEVGVRVVYARMFADRMDGRIQGYVDALKARSPQVELCSIMEETAVAKDRITALSDQYHGTAGGRISVWPAPAITPGVTVEGMRWAQAFARDRAVMWTLHMAESDHDERLHWMSPAEYMECYGLLDERLQVAHCVYFDRKDVRLLHRHNVKVASQVVSNAYLGSGVAPVPEMVERGMAVGIGTDDGNCNDSVNMIGDMKFMAHIHRAVHRDADVLTPEKILEMATIDGARSLGMDHEIGSIETGKRADLILLDLRHPQTTPHHHLAATIVFQAYGNEVDTVLIDGNVVMENRRLSFLPPERELAFLEEAQSRATAILQRANMVANPAWRSL
modifications: Pseudomonas
B5: A220T: mutated TriA variant of SEQ ID NO: 2 (protein)
chain: MQTLSIQHGTLVTMDQYRRVLGDSWVHVQDGRIVALGVHAESVPPPADRVIDARGKVVLPGFINAHTHVNQILLRGGPSHGRQLYDWLFNVLYPGQKAMRPEDVAVAVRLYCAEAVRSGITTINDNADSAIYPGNIEAAMAVYGEVGVRVVYARMFFDRMDGRIQGYVDALKARSPQVELCSIMEETAVAKDRITALSDQYHGTAGGRISVWPAPAITPTVTVEGMRWAQAFARDRAVMWTLHMAESDHDERLHWMSPAEYMECYGLLDERLQVAHCVYFDRKDVRLLHRHNVKVASQVVSNAYLGSGVAPVPEMVERGMAVGIGTDDGNCNDSVNMIGDMKFMAHIHRAVHRDADVLTPEKILEMATIDGARSLGMDHEIGSIETGKRADLILLDLRHPQTTPHHHLAATIVFQAYGNEVDTVLIDGNVVMENRRLSFLPPERELAFLEEAQSRATAILQRANMVANPAWRSL
modifications: Pseudomonas
B6: N70C: mutated TriA variant of SEQ ID NO: 2 (protein)
chain: MQTLSIQHGTLVTMDQYRRVLGDSWVHVQDGRIVALGVHAESVPPPADRVIDARGKVVLPGFINAHTHVCQILLRGGPSHGRQLYDWLFNVLYPGQKAMRPEDVAVAVRLYCAEAVRSGITTINDNADSAIYPGNIEAAMAVYGEVGVRVVYARMFFDRMDGRIQGYVDALKARSPQVELCSIMEETAVAKDRITALSDQYHGTAGGRISVWPAPAITPAVTVEGMRWAQAFARDRAVMWTLHMAESDHDERLHWMSPAEYMECYGLLDERLQVAHCVYFDRKDVRLLHRHNVKVASQVVSNAYLGSGVAPVPEMVERGMAVGIGTDDGNCNDSVNMIGDMKFMAHIHRAVHRDADVLTPEKILEMATIDGARSLGMDHEIGSIETGKRADLILLDLRHPQTTPHHHLAATIVFQAYGNEVDTVLIDGNVVMENRRLSFLPPERELAFLEEAQSRATAILQRANMVANPAWRSL
modifications: Pseudomonas
B7: A220G: mutated TriA variant of SEQ ID NO: 2 (protein)
chain: MQTLSIQHGTLVTMDQYRRVLGDSWVHVQDGRIVALGVHAESVPPPADRVIDARGKVVLPGFINAHTHVNQILLRGGPSHGRQLYDWLFNVLYPGQKAMRPEDVAVAVRLYCAEAVRSGITTINDNADSAIYPGNIEAAMAVYGEVGVRVVYARMFFDRMDGRIQGYVDALKARSPQVELCSIMEETAVAKDRITALSDQYHGTAGGRISVWPAPAITPGVTVEGMRWAQAFARDRAVMWTLHMAESDHDERLHWMSPAEYMECYGLLDERLQVAHCVYFDRKDVRLLHRHNVKVASQVVSNAYLGSGVAPVPEMVERGMAVGIGTDDGNCNDSVNMIGDMKFMAHIHRAVHRDADVLTPEKILEMATIDGARSLGMDHEIGSIETGKRADLILLDLRHPQTTPHHHLAATIVFQAYGNEVDTVLIDGNVVMENRRLSFLPPERELAFLEEAQSRATAILQRANMVANPAWRSL
modifications: Pseudomonas

Type: biochemical
Conditions: pH 7.2
How it was run: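 E. coli resting cells expressing His-tagged TriA incubated with azines, melamine or atrazine. Enzyme in 25 mM sodium phosphate pH 7.2 at 30 °C, substrate 1–10 nM. Loss of parent and formation of OH-metabolite followed by UPLC-HR-MS; % degradation relative to empty-vector cells.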

Row | Molecule | Degradation in % of 6-cyclopentyl-N4-(2,3,4,5,6-pentafluorophenyl)-1,3,5-triazine-2,4-diamine [%] | Degradation in % of Melamine [%]
1 | B1 | 0 | 2
2 | B2 | 0 | 8
3 | B3 | 3 | 0
4 | B4 | 0 | 0
5 | B5 | 1 | 6
6 | B6 | 0 | 0
7 | B7 | 0 | 0
